Target: T1, LshC2c2 (Cas13a) wild type (Leptotrichia shahii, UniProt P0DOC6 SEQ:1-1389)
T1 sequence: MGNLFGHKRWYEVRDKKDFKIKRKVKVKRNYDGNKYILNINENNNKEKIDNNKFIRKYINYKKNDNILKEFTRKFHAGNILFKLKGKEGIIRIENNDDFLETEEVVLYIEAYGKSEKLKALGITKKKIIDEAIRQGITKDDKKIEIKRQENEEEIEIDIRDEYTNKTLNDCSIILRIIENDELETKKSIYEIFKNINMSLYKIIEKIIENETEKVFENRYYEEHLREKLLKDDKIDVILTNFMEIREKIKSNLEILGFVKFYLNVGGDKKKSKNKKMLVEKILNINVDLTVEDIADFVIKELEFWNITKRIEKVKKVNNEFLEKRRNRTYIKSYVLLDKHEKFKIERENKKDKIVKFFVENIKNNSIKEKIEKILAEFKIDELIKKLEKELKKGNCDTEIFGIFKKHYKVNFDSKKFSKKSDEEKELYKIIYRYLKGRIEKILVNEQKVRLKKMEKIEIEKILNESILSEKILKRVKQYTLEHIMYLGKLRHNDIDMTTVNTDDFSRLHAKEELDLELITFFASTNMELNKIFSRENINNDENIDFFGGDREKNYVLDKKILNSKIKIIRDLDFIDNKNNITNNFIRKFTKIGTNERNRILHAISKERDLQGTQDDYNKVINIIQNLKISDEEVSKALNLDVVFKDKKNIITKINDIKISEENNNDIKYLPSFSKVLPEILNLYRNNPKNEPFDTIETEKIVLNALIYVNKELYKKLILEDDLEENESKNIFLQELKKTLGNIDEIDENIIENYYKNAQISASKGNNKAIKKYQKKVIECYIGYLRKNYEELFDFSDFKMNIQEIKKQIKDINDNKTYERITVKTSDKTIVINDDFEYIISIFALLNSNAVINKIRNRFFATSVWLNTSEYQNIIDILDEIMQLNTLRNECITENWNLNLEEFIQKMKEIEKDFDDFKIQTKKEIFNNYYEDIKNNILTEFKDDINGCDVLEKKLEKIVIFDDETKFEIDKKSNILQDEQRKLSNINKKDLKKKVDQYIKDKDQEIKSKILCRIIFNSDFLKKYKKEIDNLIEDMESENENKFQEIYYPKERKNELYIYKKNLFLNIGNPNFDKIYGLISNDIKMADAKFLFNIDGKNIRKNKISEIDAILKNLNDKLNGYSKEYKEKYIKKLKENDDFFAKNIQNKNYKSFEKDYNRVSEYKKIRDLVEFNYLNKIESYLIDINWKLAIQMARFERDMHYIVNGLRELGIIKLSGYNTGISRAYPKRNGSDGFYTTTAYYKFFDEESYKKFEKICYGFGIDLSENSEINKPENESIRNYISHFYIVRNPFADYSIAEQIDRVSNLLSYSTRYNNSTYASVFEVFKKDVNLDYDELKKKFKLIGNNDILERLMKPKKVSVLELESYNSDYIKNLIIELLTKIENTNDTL
Experiment: EMSA; non-target reverse complement
Conditions: tags: expressed as 6-His-MBP-TEV fusion, TEV-cleaved; direct repeat stem-loop
Source text: FIG. 119D Electrophoretic mobility shift assay (EMSA) evaluating affinity of the wild type LshC2c2-crRNA complex against a targeted (left) and a non-targeted (right) ssRNA substrate. The non-targeted ssRNA substrate is the reverse-complement of the targeted ssRNA. EDTA is supplemented to reaction condition to reduce any cleavage activity. FIG. 119E Electrophoretic mobility shift assay with LshC2c2(R1278A)-crRNA complex against on-target ssRNA and non-targeting complementary ssRNA (same substrate sequences as in D). FIG. 119B discloses SEQ ID NOS: 2090-2091, respectively, in order of appearance.
To determine if target binding and cleavage activity of LshC2c2 are likewise separable, electrophoretic mobility shift assays (EMSA) were performed on both the wild-type (FIG. 119D) and R1278A mutant LshC2c2 (FIG. 119E) in complex with crRNA.

B1: crRNA 14 ; ssRNA 10 (rc) (ssRNA ; ssRNA)
RNA 1: CCACCCCAAUAUCGAAGGGGACUAAAACUAGAUUGCUGUUCUACCAAGUAAUCCAU
RNA 2: CUUUAUGCUUCCGGCGUAGAUUGCUGUUCUACCAAGUAAUCCAUAUUCGAGCUCGAAUUCACUGGCCUAU
binding result: no binding

— patent publication US20240182928, “NOVEL CRISPR ENZYMES AND SYSTEMS” (The Broad Institute, Inc., published 2024)
